Results published in the DeepSol protein solubility set.

Assay: soluble on expression in E. coli; label from the status in PepcDB or PDB records

Sequence | soluble on expression in E. coli
MAAKWEKLEGNVGVLTIEVDAKEVNNSIDAAFKKVVKTINVPGFRKGKMPRPLFEQRFGIESLYQDALDIILPKAYGEAIDEAGIFPVAHPEIDIEKFEKNANLIFTAKVTVKPEVKLGEYKGLAVEKVETTVTDEDVENELKSLQERQAELVVKEEGTVENGDTAVIDFEGFVDGEAFEGGKGENYSLAIGSGTFIPGFEEQVIGLKSGESKDVEVSFPEEYHAAELAGKPATFKVTVHEIKTKELPELNDEFAKEADEAVATLDELKAKLRTNLEEGKKHEAEHKVRDEVVELAAANAEIDIPEAMIDTELDRMVREFEQRLSQQGMNLELYYQFTGTDADKLKEQMKEDAQKRVRINLVLEAIIEAENIEVTEEEVTAEVEKMAEMYGMPVDAIKQALGSVDALAEDLKVRKAVDFLVENAA | not soluble
MGSDKIHHHHHHMQTLEQLTSPEHSAWITLSQWIDNARNHCEVIKKDQSSAERELFTMQMPTSSPMGAVIYETGGILIHYGWLRILGSGSFKLPRGLMDWNFSKSFSESGEKPKYLLVADDVIGGYFALNGGSLGNNIGKIYYYSSKDLTWHNLNFTYTEFLAWVLNGDVEAFYQGLFWKNWQDDVKQLDGNQVFVFTPDLNQDRKIAIDERQKQEVNIETHYQANFAEKNKFDLAYSVA | not soluble
MSLSEGPKKAGVLGSPIAHSRSPQLHLAAYRALGLHDWTYERIECGAAELPVVVGGFGPEWVGVSVTMPGKFAALRFADERTARADLVGSANTLVRTPHGWRADNTDIDGVAGALGAAAGHALVLGSGGTAPAAVVGLAELGVTDITVVARNSDKAARLVDLGTRVGVATRFCAFDSGGLADAVAAAEVLVSTIPAEVAAGYAGTLAAIPVLLDAIYDPWPTPLAAAVGSAGGRVISGLQMLLHQAFAQVEQFTGLPAPREAMTCALAALDEGHHHHHH | soluble
MSLNSQGYAVVDFETTGLSPAKGDRAIEIGLVHVAPDGTLEDEHETLIHVDRSVGASWVHHITARELLHAPDFEGIAHELRDLLAGRVFVAHNVSFDSRFLLAEYSRMGASIPVDQSTMLCTMKLSRSLIGRGKLADCCEYFGIANEDAHSALSDAHATAILLGRLLEADPKWPGFQRRLDAAGAAAEQWPTFATLPKKEWLPRGTHLAEGHHHHHH | soluble
MGKRMVVVGGVAGGASAAAKAKRENPELEVVVYEKSGWVSYGACGLPYVLSGEIPRLERLVARTPEEFRKQGVLVRTRHEVVDVDYELRTLTVHDHAEGRTFQDRFDHLVLATGARPSLPPIPGTEQEGVYTLRTMEDGERLLKALPQARRAAILGAGYIGLEAAEAFRKRGLQVTLLEAKDRPLPHWDPEVGALLKEELERHGVEVWTGVKVEAFRGMGRVEAVETSEGVVPADLVLLATGIRPNTELAQAMGVALGPTGAIATDERMRTNLEGVYAAGDVAESFHRVLKRPYWLPLGDVANKHGRTAGSVIAGREARFLGVVGTAIFKAFDLAVATTGLSLEGALKEGFWAKKVFIQSRDGAHYYPGSGPLWVELVYEEGTGRLLGGAVVARGHGALRIDVLAALLHREGSVEDLLALDLAYAPPFSPVWDPLLIAAQQAR | soluble
GMEGSLSRGVEIMKLRELVARSRSIRRFDEHVAVNDATLRDLVELVCYTPSAANRQLLRFLPVTGADMSDKVFPCLKWAGYLEDWPGPEPGERPAAALVMLCRNEDLPGAACDSGIAAQTIMLGAAEKELGGCIVAAIDRERLMASLGIPDAWTVLLVIALGKPAETVVIDQIKPGDDIRYWRDKHGIHHVPKRQVDELLVTAEQLRERG | soluble
MKVEKEFPLMNFSLRRLPLFILIKTRKQTIEMNLRKKGHGIFFSRFGVFISKKKNHINICTLLLTKHPYTKGFPRQNVVETILFRRNSKTHFGRPATRRRPLGEREVNPSARSLG | soluble
FLPMSREEMDQLGWDACDFILVCGDAYIDHPSFVSGIIGRVLEAQGFRVGIIAQPDWTNVESFRVLGKPTIAWGVTAGNMDSMINRYTADRKIRSDDAYSPNNEPNKRPDRAATVYCQRCREAFPDVPVLLGGIEGSLRRIAHYDYWSDKVRRSILMDSKADLLMYGNGERAIIDVMHRLAKGEKIHEITDVRGTAFIINKHNKASKAQFIEIASNDVDTVGRVDPIINPYVMTEDIDGCEVEKEKGNSLAQYQNFQKEIVSKPVVREGDQLDKDTQIIQLKPVPSKAIKHKLPPRELAVIRLPSFEEVADDHVLYAHANRILHLETNPGNARALVQRHGERDVWINPPPIPLTTEEMDYVFDLPYARLPHSAYGDARFPAFDMIKFS | not soluble
MAHHHHHHMSFKQVFLRDNEECQAFPWDALTHPSQSAGEERRTIHHHLAWPAVCEREEAVMGTQPARKVSELTSVSFFLQPPFAIPRRKTGRSSLGCRHDRPLYAAGSAGPRCGDKPTLFVGAAEADFCDDMGWRQRSNSPVSSVEHNAEDDGEDFDVEPVVLKRSLSEKDRRKRLHLSEMSARLCHAFAMKPFRLACGLGLDESDDGVGMENQSGWGAGEEAAVPLREKDDDDDTTPARQTAPISETQRGNTALNFTDNDLSVVRAIALALMEEGEKKRRQEMRRKTN | not soluble
MAHHHHHHMLKKGFTATKIIGKRCFQWWDNLNTSWKFAIGFSVLFPPLWNYNERRKAREKQVYYNKSIKDYVFFDIAIENKYVGRVLIGLYSDQVPLSVENFIQLAEGYKVKDKYIGYRNTFIHKIYPGIGLVGGNVLNDKEGLSIYGKKFPDENFDMEFVQDGDVALFNEGPHSNSSQFIITFSPMPILHKHNVVIGTVLKGMDIIRMIENVGTKLGNPMYNVKIINCGLYRSLEQDGPPFFNMLHISDKGNKNIISKKEFENLSEQQRQSLMEEIGKSEKQR | not soluble
MSLDIRLLIMPLPDFALLPFGAFLDKLRFSADDEDYSQQRYCSWMVAGLSLEPVPSSSGAVLQVEAIADQLDLDLFDYLVVFGGRSAMATAALAPRYQALLRQAAKAGVKLVGVDNGAFLLAACGLLQGHKVVVHWRHEAEFRAAFPQLQLLREQLYCIDGNRITCAGGTAAIDLAVALLSRACGRTRALKGLADMLVDETREGHHHHHH | soluble
MGSDKIHHHHHHMIYNYGFLDENTKKEIRRKILKAISIPGYQVPFGSRELPIAKGWGTGGLQLTLSLIGKNDVVKVIDQGSDDSTNACNIRSFIASVSNVETTKDTLEATLIQTRHRIPEEKLKSNQILIFQVPIPETLRIVEPSEVETRRMHSEEDYSRMWVYLYEDIVRFNDISIAVEYPCKVNDRYLMNPSPIPRFDIKKLNMSDNLFLFGAGREKRIYAIPPYTKVEPLEFEDYKFEEEKFEGKYCSLCNSTNTFLDEVYDSDTNEKYYSCSDTSYCEKVRLKNNSIDVTIGGTWNE | not soluble
MAEQYSEINTDTLERVTEIFKALGDYNRIRIMELLSVSEASVGHISHQLNLSQSNVSHQLKLLKSVHLVKAKRQGQSMIYSLDDIHVATMLKQAIHHANHPKESGL | soluble
MGSDKIHHHHHHMSMAMEHDLLIVGGGPVGATLALALQYKGIDATVLEARAHGAAHHDQRALALSYGSILILERLGLWSGLKPKATAINTIHVSQRGSLGRSLLKAEDHDQPALGYVLSYGDLSAALDDAIRQFPGIQVRYEAEALAIKPGREAAHVEYQYQAQAYSCNSRMTVLADGGRSLADIPGLERETKHYGHDALVSKVSCELPHDNIAYERFTPAGPVALLPNGTRDFSLVWTGKAEEVQALLALDDAAFLEALHTHFGDRVGRFLTVGKRLSFPLKLSYLKPVTAPHLTVIGNAAQTMHPVAGQGFNVGMRDAWELAQLLAQTPSEEWGMDRMMQAYQASRKADTRGGLLFTDFLVNVFSNDIVGLRKIRSLGLGLLDMLPLAKQHLVSKMSFGPRG | not soluble
MKGYSMAKCLTLNTHSWMEVNALKKLFDLAEHIFREKYDIICLQEVNQSISSPLAKSSPNYHPIEGTPALHQDNFALQLVHYLNLQGLHYHWTWAYNHIGYSKYHEGVAILSLKPLKPEDILVSAVDDETDYHTRRALVAETTLNDKVVTVVSLHFSWFEKGFAEEWKRLETTLLEVETPLLLMGDFNNPTGNQGYELVLNSPLALKDSHQIANHVFGDHTIMADIDGWEGNKKALKVDHIFTSEDLSISSSQVVFEGGEAPVVSDHYGLEITMDF | not soluble
GPGSMAVQPGKVLAEQFSRQGIQYEESTDVLWCSLCTKADSLEIISRATVEDVLEHCRLRQHLLLMEKETVKEHYCPVEINGRSFLLDHNCVYPSTMFGKGRMLLDDTLGCVMTEDVCGGVKLLPRHKYTVVEIVIPPAGTPIPKDPSYYVERPVRSRKCHEKFDSWIQVHNSSVEGESALMKRRRIAFSQLNM | not soluble
MGSDKIHHHHHHMQTSHCLWQRKLVAFTSRSERMDENWKQQLATDSYGNPVRSISNLRLIFTLDENLSQIRYDTFCQDDVCFNPLFRNVNGNKIDEESVGKIQDYLERTYRLRLTQNKVFEILKTTSSERSFNPVQEFITQETWDGQPRIATAIIDYLGAEDMPLVREQTKLWFVAAVARVFSPGCKFDNVLTLPGPQGIGKSTFFKTISGKWFNDSFSFASGDKEKVETITNGWIIEISELNGLKRANDVEAAKAFLSRCSDYMRPAYGHKVVEFMRHNVFAATTNETNFLQGDNGNRRWWIIPVKGNGHVSDWLDCLQHSVPQLWAEAYTYYRQGMKLYLSPDMEIEANEIQMQHSNILVDPIMEDIEMYLEREVPVQYASWMIPTRLAYQKGAYSEPNSTMTSLNMVCARQIIEELPNDLVRRNTSKYTSQYINRLMSMIPNWKRSKQEKVKGLHPAYCDKTGRSKHPWVRVGTPSEEVCATLPSEPELPF | not soluble
VSTTPAAGVLDTSVFIATESGRQLDEALIPDRVATTVVTLAELRVGVLAAATTDIRAQRLATLESVADMETLPVDDDAARMWARLRIHLAESGRRVRINDLWIAAVAASRALPVITQDDDFAALDGAASVEIIRV | not soluble
MGSDKIHHHHHHVSGAILSGPEQKPDQDDIETALFRHLAQQGWCLSAPTPLAGGRSNHVWRAGDKVVKLYRSDAHNPLFANDPDRERAMLRALSGTGMAPRFLAHGLWQGQAWLMYTHVCGARWESDPSHVARILSIVHDQAKPRGLPFGCNGSEALAQQTRQIVSAASQGTTLLDRAPQGVVPPTSQLCLIHGDPVPGNIVAHNGTLALIDWQCPQLGDPAEDLALFLSPAMQLAYRGRVLSRQEEAEFVTAYPHPRVVARYYALKPWFHWRMAAYCAWRGETDARDLELAEI | not soluble
MPSDIPKTRLETEGTTQHTSPLRATCHRVFSLNAGRKAGEQYHLFCTSKSDNSTCLDGPARVVLRDILDNLYNRISSMPRANEIKKGMVLNYNGKLLIVKDIDIQSPTARGAATLYKMRFSDVRTGLKVEERFKGDDIVDTVTLSRRGVDFSYVDGNEYVFMDKEDYTPYTFTKDQIEEELLFMPEGGMPDMQVLTWDGQLLALELPQTVDLEIVETAPGIKGASASARNKPATLSTGLVIQVPEYLSAGEKIRIHIEERRYMGRAD | not soluble
MGSDKIHHHHHHMNLQYVLLNDNSWQSQGEWQTPDTPFMSFAFWQALSDTGAIGEEAGWLPIYILVHRVESDDDFTVQQSLSSVEASIKVKQPVAVLPVFIKGHHRGEFVFDHSWAQAYAQYGLDYYPRLVTSAPYTPITGQRLWLAEGETLDAEIINTAIKGVDDIAQQVDASGWHGLFVTPEMATIATTLMPFNSHTRSAGQSHGVDSASNTSMNIASNTPVLERQGCQFLWQNKNLSQNDQLFADFEEFLATLKAKKRKTIRAERRKVAEQGITCQRKCGDEIIESDWKTFYHCYVMTYAVRGQQPYLSIDFFEALAQNMAEHVMLAQALDAGGEIIASSLFLYDKPDNKMATLYGRYWGALGEYDSLHFELCYYQGIEFAIEQGLHYFDPGTQGEHKLIRGFIPTTTHSLHRIYDARFVPAIADFCHKDRLHMAQYREQAFEALPFNIDNMPTFDNNE | not soluble
